B1: 合成ペプチドP110 (peptide)
peptide: KCRCKPNFFC
B2: 合成ペプチドP100 (peptide)
peptide: EINCTRTQNT

Target: 抗Fasモノクローナル抗体HFE7A(マウス−マウスハイブリドーマHFE7A、FERM BP−5828が産生)
Test: 200 µg peptide pre-incubated with 0.25 µg HFE7A, then flow cytometry on WR19L12a cells; D355-364 control set to 100 % fluorescence

| Binder | HFE7AとWR19L12a細胞との結合の阻害(%) |
| --- | --- |
| B1 | 60 % |
| B2 | 50 % |

Reference: JP2000169393A
